For 38 variants, self-cleavage results are on record in the RNAGym collection of RNA variant scans (doi:10.7554/elife.80360).

B1: Hairpin Ribozyme (parent)
chain: GUCCUCUUUCACGUGCGCGUGAAAGAGAGAAGUGAACCAGAGAAACACACGUUGUGGUAUAUUACCUGGUA

The variants in the series derive from B1. Briefly: self-cleavage, relative activity (ratio to wild type); higher = more cleavage; co-transcriptional.
With GUCCUCCUUCACGUGCGCGUGAAAGAGAGAAGUGAACCAGAGAAACACACGUUGUGGUAUAUUACCUGGUC [U7C A71C], the self-cleavage was 1.35. The figure for GUCCUCGUUCACGUGCGCGUGAUAGAGAGAAGUGAACCAGAGAAACACACGUUGUGGUAUAUUACCUGGUA [U7G A23U] is 0.883; for GUCCUCGUUUACGUGCGCGUGAAAGAGAGAAGUGAACCAGAGAAACACACGUUGUGGUAUAUUACCUGGUA [U7G C10U] it is 0.64. The figure for GUCCUCGUUAACGUGCGCGUGAAAGAGAGAAGUGAACCAGAGAAACACACGUUGUGGUAUAUUACCUGGUA [U7G C10A] is 0.765; for GUCCUCGUUGACGUGCGCGUGAAAGAGAGAAGUGAACCAGAGAAACACACGUUGUGGUAUAUUACCUGGUA [U7G C10G] it is 0.643. The figure for GUCCUCCUUCACGUGCGCGUGAAAGAGAGAAGUGAACCAGAGAAACACACGUUGUGGGAUAUUACCUGGUA [U7C U58G] is 0.815.

On to GUCCUCGUUCACGUGCGCGUGAAAGAGGGAAGUGAACCAGAGAAACACACGUUGUGGUAUAUUACCUGGUA [U7G A28G], for which the self-cleavage was determined as 1.06. The figure for GUCCUCGUUCACGUGCGCGUGAAAGAGCGAAGUGAACCAGAGAAACACACGUUGUGGUAUAUUACCUGGUA [U7G A28C] is 0.329; for GUCCUCCGUCACGUGCGCGUGAAAGAGAGAAGUGAACCAGAGAAACACACGUUGUGGUAUAUUACCUGGUA [U7C U8G] it is 0.484; for GUCCUCGUUCACGUGCGCGUGAAAGAGAGAAGUGAACCAGAGAAACACACGUUGUGGUAUAUUACCUGGUA [U7G] it is 0.875. For the variant GUCCUCCUUCACGUGAGCGUGAAAGAGAGAAGUGAACCAGAGAAACACACGUUGUGGUAUAUUACCUGGUA [U7C C16A], the self-cleavage was found to be 0.913. The figure for GUCCUCCUUCACGUGGGCGUGAAAGAGAGAAGUGAACCAGAGAAACACACGUUGUGGUAUAUUACCUGGUA [U7C C16G] is 0.456; for GUCCUCGUUCACGUGCGCGUGAAAGAGAGAAGUGAACCAGAGCAACACACGUUGUGGUAUAUUACCUGGUA [U7G A43C] it is 0.138. The figure for GUCCUCCUUCACGUGCGCGUGAAAGAGAGAAGUGAACCAGAGAAAGACACGUUGUGGUAUAUUACCUGGUA [U7C C46G] is 0.124; for GUCCUCCUUCACGUGCGCGUGAAAGAGAGAAGUGAACCAGAGAAACACACGUUGUGGUAUAUUACCUGGCA [U7C U70C] it is 1.04; for GUCCUCCUUCACGUGCGCGUGAAAGAGAGAAGUGAACCAGAGAAACACACGUUGUGGUAUAUUACCUGGAA [U7C U70A] it is 1.02. Under GUCCUCGUUCACGUGCGCGUGAAAGAGAGAAGUGAACCAGAGAAACACACGUUGUGGUAUAUUACCUGGUU [U7G A71U] stands 0.746; under GUCCUCGUUCACGUGCGCGUGAAAGAGAGGAGUGAACCAGAGAAACACACGUUGUGGUAUAUUACCUGGUA [U7G A30G], 0.081. As to GUCCUCCUUCACGUGCGCGUGAAAGAGAGAAGUGAACCAGAGAAACACACGUUGUGGUAUAUUACCUCGUA [U7C G68C], the self-cleavage was 0.302. Under GUCCUCCUUCACGUGCGCGUGAAAGAGAGAAUUGAACCAGAGAAACACACGUUGUGGUAUAUUACCUGGUA [U7C G32U] stands 0.261; under GUCCUCCUUCACGUGCGCGUGAAAGACAGAAGUGAACCAGAGAAACACACGUUGUGGUAUAUUACCUGGUA [U7C G27C], 0.172; under GUCCUCCUUCACGUGCGCGUGAAAGAAAGAAGUGAACCAGAGAAACACACGUUGUGGUAUAUUACCUGGUA [U7C G27A], 0.386. For GUCCUCCUUCACGUGCGCGUGAAAGAGAGAAGUGAACCAGAGAAACACACGAUGUGGUAUAUUACCUGGUA [U7C U52A], the self-cleavage came to 0.82. The figure for GUCCUCGUUCACGUGCGCGUGAAAGAGAGACGUGAACCAGAGAAACACACGUUGUGGUAUAUUACCUGGUA [U7G A31C] is 0.11. Turning to GUCCUCCUUCACGUGCGCGUGAAAGAGAGAAGUGAACCAGAGCAACACACGUUGUGGUAUAUUACCUGGUA [U7C A43C], the self-cleavage came to 0.0702. Under GUCCUCCUUCACGUGCGCGUGAAACAGAGAAGUGAACCAGAGAAACACACGUUGUGGUAUAUUACCUGGUA [U7C G25C] stands 0.251; under GUCCUCGUUCACGUGCGCGUGAAAGAGAGAAGUGAACCAGAGAAACACCCGUUGUGGUAUAUUACCUGGUA [U7G A49C], 0.141. As for GUCCUCGUUCACGUGCGCGUGAAAGAGAGAAGUGAACCAGAGAAACACUCGUUGUGGUAUAUUACCUGGUA [U7G A49U], the self-cleavage is 0.15. In the case of GUCCUCCUUCACGUGCGCGUGAAAGAGAGAAGUGAACCAGAGAAACACACGUUGUGGUAUAUUAGCUGGUA [U7C C65G], the self-cleavage worked out at 0.357. Under GUCCUCCUUCACGUGCGCGUAAAAGAGAGAAGUGAACCAGAGAAACACACGUUGUGGUAUAUUACCUGGUA [U7C G21A] stands 0.618; under GUCCUCCUUCAUGUGCGCGUGAAAGAGAGAAGUGAACCAGAGAAACACACGUUGUGGUAUAUUACCUGGUA [U7C C12U], 0.89; under GUCCUCCUUCACGUGCGCGUGAAAGAGAGAAGUGAACCAGUGAAACACACGUUGUGGUAUAUUACCUGGUA [U7C A41U], 0.98.

In the case of GUCCUCCUGCACGUGCGCGUGAAAGAGAGAAGUGAACCAGAGAAACACACGUUGUGGUAUAUUACCUGGUA [U7C U9G], the self-cleavage amounted to 0.35. Regarding GUCCUCCUCCACGUGCGCGUGAAAGAGAGAAGUGAACCAGAGAAACACACGUUGUGGUAUAUUACCUGGUA [U7C U9C], the self-cleavage amounted to 0.673.

As to GUCCUCGUUCACGUGCGCGUGCAAGAGAGAAGUGAACCAGAGAAACACACGUUGUGGUAUAUUACCUGGUA [U7G A22C], the self-cleavage amounted to 0.515. Under GUCCUCGUUCACGUGCGCGUGGAAGAGAGAAGUGAACCAGAGAAACACACGUUGUGGUAUAUUACCUGGUA [U7G A22G] stands 0.908; under GUCCUCGUUCACGUGCGCGUGAAAGAGAGAAGUGAACCAGAGAAUCACACGUUGUGGUAUAUUACCUGGUA [U7G A45U], 0.2. Under GUCCUCCUUCACGUGCGCGUGAAAGAGAGAAGUGAACCAGAGAAACACACGUUGUGGUCUAUUACCUGGUA [U7C A59C] stands 0.251.
